{"source": "patent US20210284711A1", "about": "(KAHR MEDICAL, published 2021)", "binders": {"B1": {"name": "N-terminal His-tagged DSP105_V17 (PD1-4-1BBL variant fusion protein) (other)", "chain": "HHHHHHDSPDRPWNPPTFSPALLVVTEGDNATFTCSFSNTSESFVLNWYRMSPSNQTDKLAAFPEDRSQPGQDSRFRVTQLPNGRDFHMSVVRARRNDSGTYLCGAISLAPKAQIKESLRAELRVTERRAEVPTAHPSPSPRPAGQGSAASPRLREGPELSPDDPAGLLDLRQGMFAQLVAQNVLLIDGPLSWYSDPGLAGVSLTGGLSYKEDTKELVVAKAGVYYVFFQLELRRVVAGEGSGSVSLALHLQPLRSAAGAAALALTVDLPPASSEARNSAFGFQGRLLHLSAGQRLGVHLHTEARARHAWQLTQGATVLGLFRVTPEIPAGLPSPRSE", "notes": "also called N-terminal His-tagged DSP105_var17"}}, "target": "T1, human PDL1 (overexpressed on DLD1-PDL1 cells) (human, UniProt Q9NZQ7 19-290)", "T1 construct": "whole, on cells; also called B7H1; CD274", "T1 sequence (Q9NZQ7 19-290)": "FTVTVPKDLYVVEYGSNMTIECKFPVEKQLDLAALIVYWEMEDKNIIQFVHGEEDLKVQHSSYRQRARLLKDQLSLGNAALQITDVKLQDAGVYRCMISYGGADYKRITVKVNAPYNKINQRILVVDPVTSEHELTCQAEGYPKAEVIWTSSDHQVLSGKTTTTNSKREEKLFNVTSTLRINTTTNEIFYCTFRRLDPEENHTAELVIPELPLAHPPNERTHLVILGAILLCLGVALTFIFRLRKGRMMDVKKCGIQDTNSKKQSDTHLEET", "assay": "flow cytometry on DLD1-PDL1 cells, GMFI plotted against DSP105 conc. [ug/ml] (two-fold steps)", "source_text": "Following, GMFI values were used to create a binding curve graph with a GraphPad Prism software (FIG. 10C). Taken together, both sides of the His-tagged DSP105_V17 (SEQ ID NO: 97), fusion protein, bind their relevant counterparts overexpressed on the surface of cells.", "data": [{"binder": "B1", "values": [{"measurement": "EC50 (read off the curve)", "value": "~0.9", "unit": "µg/mL"}]}]}
